From patent US11014896B2, “TRPA1 and TRPV4 inhibitors and methods of using the same for organ-specific inflammation and itch” (Duke University, priority 2014, dated 2021) come the findings set out here.

“Also recorded” adds a separate entry of the source.

The target of assay [1] is T1, TRPV4 (Mus musculus, UniProt Q9EPK8).
T1 construct: endogenous in cells; host or cells: primary mouse epidermal keratinocytes (1° MK), wild type
The experiment in a line: 4α-PDD-evoked Ca++ signaling in 1° MK (fura-2). It is filed as cell-based. The conditions noted are these: fura-2 ratiometric imaging. The protocol:
(§1) Ca++ imaging of mouse 1° MK in response to chemical activation of TRPV4 was conducted after loading with 2 μM fura2-AM, following a ratiometric Ca2+ imaging protocol with 340/380 nm […] for dual excitation. Ratios of emissions were acquired at 0.5 Hz. ΔR/R0 was determined as the fraction of the increase of a given ratio over baseline ratio, divided by baseline ratio. For stimulation of cells with UVB, where fura-2 was not suitable because of the proximity of stimulation with 340/380 nm and 295 nm, 2 μM fluo4-AM was used instead. Ca++ imaging was carried out at 488 nm excitation, acquisition of emissions at 0.5 Hz, expressed as ΔF/F0. In the custom-built UV optical system, UV LEDs were capped with a ball lens, a transparent optical window in the shape of a hemispherical lens (FIG. 2B). The LED output optical beam focused at 15-20 mm from the lens, with a spot diameter of approximately 1.5-2.0 mm (FIG. 2C). […] The thermal equilibration stage was set for physiological temperature. We confirmed the non-thermal nature of UVB stimulation using the customized 295 nm LED device in a dedicated experiment (FIG. 2D), thus confirming the specific modality of stimulation as UVB.

Assay [2] in a line: Nocifensive behavior in response to ET1 footpad injection (von Frey). To be noted: footpad injection of ET1; WT and oil-treated iKO (control) mice. It is filed as in vivo, mouse. The protocol: ET1 injections: After determining base-line withdrawal thresholds, each animal received an intraplantar injection of 10 μL 100 nM ET-1 plus contralateral vehicle. Thresholds were again evaluated 1 hour after injection.
Hindpaw mechanical withdrawal thresholds were determined by the automated von Frey hair method, using a 0.5 mm diameter stainless steel filament, part of an automated plantar touch stimulator (Ugo Basile, Modena, Italy). Relevant detail included pre-test acclimatization in a quiet room for 30 min, conducting the test at the same time of day and blinded observers. The stimulus was delivered to the hindpaw, automatically discontinued upon withdrawal, and its intensity recorded automatically. 6-8 trials per animal were conducted, with equal exposure of both hindpaws, leading to an average withdrawal threshold. Results are reported as […], which was calculated by subtracting post-treatment from pre-treatment measurements, expressed as % or relative to 1.0.

Assay [3] has as its system primary mouse keratinocytes (1° MK). The experiment in a line: UVB-evoked Ca++ signaling in primary mouse keratinocytes (fluo-4 imaging). It is filed as cell-based. To be noted: GSK205 20 μM. The protocol:
Ca++ imaging of 1° MK was conducted following routine procedures. For UVB stimulation, a customized device was built. The system comprised a printed circuit board for electrical interconnects and mechanical support and an ultraviolet light-emitting diode (UV LED).
The operating wavelength was 295 nm (FIG. 2A), with a full-width half-max of 12 nm. The optical power was 500 mW. The focal point was aimed at the plane of the upper surface of the quartz coverslip, which was used to minimize UV absorption along the optical path towards the cells (FIG. 2A-FIG. 2C). The optical intensity at the focal point was estimated to be 150 mW/mm^2.
as §1, with “temperature.” for “temperature. We confirmed the non-thermal nature of UVB stimulation using the customized 295 nm LED device in a dedicated experiment (FIG. 2D), thus confirming the specific modality of stimulation as UVB.”

For assay [4], the target named is T1, TRPV4. In words: GSK101-evoked Ca++ transient in 1° MK. It is filed as cell-based. The conditions noted are these: 5 nM GSK101; GSK205 20 μM. The protocol: as §1

T1 sequence (Q9EPK8 whole entry): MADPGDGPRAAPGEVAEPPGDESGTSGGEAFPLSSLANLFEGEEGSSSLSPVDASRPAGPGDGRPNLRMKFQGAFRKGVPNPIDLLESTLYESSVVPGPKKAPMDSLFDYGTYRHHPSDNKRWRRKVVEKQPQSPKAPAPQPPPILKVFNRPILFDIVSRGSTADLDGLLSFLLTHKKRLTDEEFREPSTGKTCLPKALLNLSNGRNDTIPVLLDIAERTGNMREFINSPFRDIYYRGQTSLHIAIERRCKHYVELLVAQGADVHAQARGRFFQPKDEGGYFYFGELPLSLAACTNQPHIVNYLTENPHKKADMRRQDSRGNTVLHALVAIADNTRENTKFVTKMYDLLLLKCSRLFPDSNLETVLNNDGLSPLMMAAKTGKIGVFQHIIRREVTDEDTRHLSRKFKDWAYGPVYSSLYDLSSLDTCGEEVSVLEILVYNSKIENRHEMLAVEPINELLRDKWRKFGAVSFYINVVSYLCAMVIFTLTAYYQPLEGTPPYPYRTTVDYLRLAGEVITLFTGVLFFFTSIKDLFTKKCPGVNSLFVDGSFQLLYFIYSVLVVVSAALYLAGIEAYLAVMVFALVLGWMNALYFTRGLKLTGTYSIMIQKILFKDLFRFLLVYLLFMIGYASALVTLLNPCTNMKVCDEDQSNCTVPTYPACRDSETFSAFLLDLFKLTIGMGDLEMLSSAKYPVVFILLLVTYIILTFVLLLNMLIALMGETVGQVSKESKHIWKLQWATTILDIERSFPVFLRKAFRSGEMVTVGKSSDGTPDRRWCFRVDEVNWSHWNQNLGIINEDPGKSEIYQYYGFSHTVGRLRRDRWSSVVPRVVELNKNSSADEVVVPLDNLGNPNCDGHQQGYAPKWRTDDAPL

Turning to “ET1: endothelin-1, cognate peptide ligand of endothelin receptors”, the “4α-PDD-evoked Ca++ transients on co-application” value with TRPV4 [1] is listed as “significant increase in the response”. Besides, the “mechanical allodynia / von Frey withdrawal thresholds after ET1 injection” value in assay [2] is “significantly lowered; also recorded: significant levels of mechanical allodynia”. In assay [3], the “UVB-evoked Ca++ signaling (ΔF/F0)” value is reported as “significant increase; also recorded: augmentation”. Also, the “GSK101-evoked Ca++ transient” value in the assay with TRPV4 [4] is “augmented; also recorded: increase in signal”.
